Where “and” joins values, the source holds several entries; their conditions need not be identical. Equal entries are not always repeated.
Tests used:
[1] = tested on: rat oligodendrocytes; assay: IFN-γ-induced apoptosis in cultured rat oligodendrocytes (TUNEL/CNP, caspase-3 activity); assay type: cell-based
Protocol: To test whether apoptosis of oligodendrocytes that is induced by INF-γ affects ER stress, the effect on the morphology, the degree of apoptosis and the expression of ER markers was studied in a culture of oligodendrocyte precursor cells (OPC). Oligodendrocyte progenitors were cultured from neonatal rat brains (Baerwald, et al. (1998) J. Neurosci. Res. 52: 230-239). A mixed glial culture was grown in flasks in medium containing 10% fetal bovine serum (FBS), and when the astrocyte layer became confluent (10-14 days), oligodendrocyte progenitors were separated from astrocytes and microglia using an orbital shaker. Cells, greater than 95% of which were A2B5 positive, GFAP negative and CD11b negative, were cultured in 0.5% FBS containing medium, which also contained PDGF (10 ng/ml) and FGF (5 ng/ml) (both from R&D Systems, Minneapolis, Minn.). Then cells were switched to 0.5% FBS medium without PDGF and FGF for differentiation. […]
The level of apoptosis of the OPC cells was determined by double staining CNP (1:200; Sternberger Monoclonals, Lutherville, Md.) and TUNEL using the ApopTag Kit (Serologicals Corp., Norcross, Calif.) and following the manufacturer's instructions. Apoptosis was also evaluated by measuring the activity of caspase-3 in oligodendrocyte lysates using the Fluorimetric Caspase 3 Assay Kit (Sigma, St. Louis, Mo.), according to the manufacturer's instructions.

[2] = tested on: ER stress markers (BIP, CHOP, caspase-12); assay: ER stress markers in the CNS of 14-day-old mice ectopically expressing IFN-γ (released from doxycycline at E14); assay type: in vivo; settings: PND 14, DOX− from E14
Source text: To study the effect of INF-γ on the myelination of oligodendrocytes during mouse development, transgenic mice that allow for temporally regulated delivery of IFN-γ to the CNS using the tetracycline (tet) controllable system (Lin, et al. (2004) J. Neurosci. 24: 10074-10083) were generated. To drive tTA expression in astrocytes, the transcriptional regulatory region of the glial fibrillary acidic protein (GFAP) gene was chosen (Brenner, et al. (1994) J. Neurosci. 14: 1030-1037). GFAP/tTA mice were mated with TRE/IFN-γ mice to produce animals hemizygous for both transgenes. When these mice are maintained on doxycycline (DOX+), expression of the IFN-γ transgene is repressed (FIG. 10A); when the double transgenic mice are released from doxycycline (DOX−) INF-γ is expressed. For the purpose of these experiments, mice received doxycycline up to day 14 of development (E14), at which time the experimental animals (DOX−) stopped receiving doxycycline, while the control animals (DOX+) were continuously fed the dug. The mRNA for IFN-γ could be detected in the DOX− mice as early as 10 days after birth (data not shown).
Real time PCR analysis was performed to determine the levels of expression of INF-γ, MHC-1, BIP, CHOP, and caspase 12. The primers for the PCR reactions for BIP, CHP and caspase 12 are given in example 1. The sense and antisense primers for INF-γ were […] (SEQ ID NO: 39) and […] (SEQ ID NO: 40), respectively; and the sense and antisense primers for MHC-1 were MHC-I sense primer: ATTCCCCAAAGGCCCATGT (SEQ ID NO: 1); and MHC-I antisense primer: […] (SEQ ID NO: 2).
Western blot analysis was performed on the CNS of 14 day old mice to determine the expression of caspase-12 as described in Example 6.

[3] = tested on: mice with EAE; assay: MOG 35-55-induced EAE, CNS delivery of INF-γ at EAE onset (PERK+/+ double or PERK+/− triple mice); assay type: in vivo; settings: for Mean of maximum clinical score (mean ± S.D.): 0-5 point scale; for Mean of maximum clinical score (mean ± S.D.) / Day of onset of disease (PID: postimmunization day): n = 25
[4] = tested on: myelin basic protein (MBP); assay: Hippocampal organotypic cultures (HOC), in vitro model of myelination, MBP Western blot; assay type: cell-based; settings: 100 U/ml IFN-γ, 7 days, HOCs
Protocol: HOCs, were prepared and maintained as described previously (Kunkler and Kraig (1997) J Cereb Blood Flow Metab. 17:26-43), and were maintained in vitro for 7 days before use. SAL at various concentrations was combined with 100 U/ml IFN-γ and added to the HOC cultures for 7 days. […] After 7 days of 100 U/ml IFN-γ exposure, the levels of MBP decreased approximately 80% in the HOCs (FIG. 29).

B1: IFN-γ: pleotropic cytokine secreted by activated T lymphocytes and natural killer cells; recombinant rat IFN-γ added to cultures or transgenically expressed in mouse CNS (protein, UniProt P01581 23-156, looked up)
Interferon gamma: QGTLIESLESLKNYFNSSSMDAMEGKSLLLDIWRNWQKDGNTKILESQIISFYLRLFEVLKDNQAISNNISVIESHLITNFFSNSKAKKDAFMSIAKFEVNNPQIQHKAVNELIRVIHQLSPESSLRKRKRSRC
caspase-3 activity in the cell lysates ([1]; 70 U/ml IFN-γ): markedly increased
TUNEL and CNP double labeling (apoptosis) ([1]; 70 U/ml IFN-γ for 48 h, oligodendrocytes differentiated 5 days): induced apoptosis in a significant number of oligodendrocytes
BIP expression [2]: approximately 1.6 times the control levels
CHOP expression [2]: ~2 times the control levels
caspase-12 expression [2]: strongly enhanced
Incidence of death ([3]; DOX− double mice (PERK+/+)): 0/25
Mean of maximum clinical score (mean ± S.D.) ([3]; DOX− double mice (PERK+/+)): 1.63 ± 0.51
Day of onset of disease (PID: postimmunization day) ([3]; DOX− double mice (PERK+/+)): 14.7 ± 1.4
Incidence of hind limb paralysis ([3]; DOX− double mice (PERK+/+), listed as INF-γ): 2 of 25 and 2/25
MBP mRNA level in the spinal cord versus age-matched naive mice ([3]; DOX− double mice, PID17, DOX+ double mice decreased by 30%): not significantly decreased
Incidence of death ([3]; DOX− triple mice (PERK+/−)): 3/25
Incidence of hind limb paralysis ([3]; DOX− triple mice (PERK+/−)): 18/25
Mean of maximum clinical score (mean ± S.D.) ([3]; DOX− triple mice (PERK+/−)): 2.71 ± 1.11
Day of onset of disease (PID: postimmunization day) ([3]; DOX− triple mice (PERK+/−)): 13.6 ± 0.8
decrease of MBP levels [4]: approximately 80%

From patent US8415106B2, “Cell-based screen for agents useful for reducing neuronal demyelination or promoting neuronal remyelination” (Myelin Repair Foundation, Inc., priority 2005, dated 2013)
